The labels stand for the following.
B1: Tip elongation aberrant protein Tea4 (Schizosaccharomyces pombe (strain ATCC 38366 / 972)), O60132 (parent)
chain: MLHMNSASSADSMEIMESHFDPTQQNDSTIIESRYSPEEYLEQSFEIQRIISGENSEPQTVASQEISDSQEEDTTLTSSQFEDCGTEYNEVVEDDEFRSEDEDDFMDEEEEYALYEAELSSSPSIHEEVIDCNFVHAIRGFEATVEGQVDATKGDMMILLDDSNSYWWLVKMCKNLAIGYLPAEYIETPSERLARLNKYKNSETSNSQQSVTLPPLDIVEKTLEAPSPNFRIKRVTFTCSSNSSDDEMDSENDYEAMVNRTVAENGLEIEFSDSSDSSLSAEYRSESEDHVTDSPAYVDLTELEGGFNQFNSTSFQSTSPLGLEIVETEINGSSTTADSKNSHSPYSKFSSAYPDAENSNISKINISIAGNKELYGNATQSDPSLYSTWIANKHKTASSATVDSPLRRSLSVDAMQSNASFSSYSSTSNTDKSLRPSSYSAVSESSNFTHDVSRDNKEISLNAPKSIIVSQSDSFDTSNVTQDAPNDVEKEPISGQMPNNLSVQSLKQLEVYPIRHSVSIEMPSEKLLSPRLYSSSTPSSPTKGFQKDDEEDSENRKQADKVELSPSSLLRQMSLPVDSSSQSDAQCTTSSVYITAERKAFSQSSIDLSTLSNHHVNNEINRRSFAGGFTSLADELSEMRELLHESPAPLECNEEMVIPTPELDASSAIPSSSISHDEDLLPRKNTEESTSSSSFSSLITSPASLQYDENPFKQSVVAELNNNSSSVPFVDSAHASDIHAYDNDHVSTKNKEFNRRLREFILDPDSLSGLYWSVKSAGVRASRRVSRNIEGESVSSDLDDIFANVLKGLSDEMASLLNTNR
B2: Tip elongation aberrant protein Tea4 (Schizosaccharomyces pombe (strain ATCC 38366 / 972)), O60132 (parent)
chain: B1 chain
partner: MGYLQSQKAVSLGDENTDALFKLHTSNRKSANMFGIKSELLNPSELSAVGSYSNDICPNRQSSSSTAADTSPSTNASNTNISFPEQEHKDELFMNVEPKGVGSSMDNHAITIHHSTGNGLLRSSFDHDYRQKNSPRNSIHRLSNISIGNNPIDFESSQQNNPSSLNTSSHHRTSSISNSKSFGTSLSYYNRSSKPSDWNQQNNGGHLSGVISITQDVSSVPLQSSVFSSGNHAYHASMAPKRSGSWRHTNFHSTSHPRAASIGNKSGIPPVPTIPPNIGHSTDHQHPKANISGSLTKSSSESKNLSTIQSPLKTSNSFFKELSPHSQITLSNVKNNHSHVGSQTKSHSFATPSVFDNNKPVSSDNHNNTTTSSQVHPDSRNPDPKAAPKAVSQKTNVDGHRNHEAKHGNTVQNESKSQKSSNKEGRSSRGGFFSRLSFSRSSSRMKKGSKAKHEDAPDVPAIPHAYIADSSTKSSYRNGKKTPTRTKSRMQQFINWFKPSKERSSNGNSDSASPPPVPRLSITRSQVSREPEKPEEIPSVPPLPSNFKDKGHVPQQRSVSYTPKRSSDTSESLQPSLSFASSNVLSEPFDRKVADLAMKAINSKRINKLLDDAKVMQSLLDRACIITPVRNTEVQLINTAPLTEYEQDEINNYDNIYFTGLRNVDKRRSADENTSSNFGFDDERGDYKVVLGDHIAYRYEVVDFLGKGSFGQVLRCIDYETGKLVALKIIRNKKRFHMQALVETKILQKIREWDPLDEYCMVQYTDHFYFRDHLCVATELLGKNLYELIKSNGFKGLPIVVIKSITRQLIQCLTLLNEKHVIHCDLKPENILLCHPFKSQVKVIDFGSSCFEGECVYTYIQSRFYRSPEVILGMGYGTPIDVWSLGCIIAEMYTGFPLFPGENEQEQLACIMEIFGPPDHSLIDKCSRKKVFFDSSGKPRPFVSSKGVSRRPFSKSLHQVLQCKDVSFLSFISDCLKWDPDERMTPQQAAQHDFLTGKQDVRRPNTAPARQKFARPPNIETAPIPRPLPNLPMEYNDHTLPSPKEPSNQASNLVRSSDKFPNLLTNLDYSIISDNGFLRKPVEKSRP

Experiment [1] covers variants of B1. Conditions: with pp11_schpo dis2, P13681.
The variants in experiment [2] derive from B1. Conditions: with pp11_schpo dis2, P13681. The source holds these as a separate data set.
The variants in experiment [3] derive from B2. Conditions: with pom1_schpo pom1, Q09690.
Experiment [4] covers variants of B2. Conditions: with pom1_schpo pom1, Q09690. The source holds these as a separate data set.

Sequence of pp11_schpo dis2, P13681 (P13681 whole entry): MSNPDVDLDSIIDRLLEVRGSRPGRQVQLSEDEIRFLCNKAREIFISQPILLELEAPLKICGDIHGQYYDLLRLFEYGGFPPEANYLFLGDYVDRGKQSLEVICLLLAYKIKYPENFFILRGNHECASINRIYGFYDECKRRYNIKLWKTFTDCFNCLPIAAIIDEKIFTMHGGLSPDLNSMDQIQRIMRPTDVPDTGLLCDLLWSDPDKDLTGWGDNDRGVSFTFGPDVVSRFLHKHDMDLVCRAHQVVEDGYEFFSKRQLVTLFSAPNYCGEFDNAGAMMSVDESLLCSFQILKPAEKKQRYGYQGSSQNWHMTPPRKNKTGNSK

Regarding W167A;W168A, the “effect of a mutation on the interaction” value with pp11_schpo dis2, P13681 [1] is recorded as “disrupting interaction”; with pp11_schpo dis2, P13681 [2], “decreasing interaction”. As for V235A;F237A, the “effect of a mutation on the interaction” value with pp11_schpo dis2, P13681 [1] is given as “disrupting interaction”.

With W167A;W168A, the “effect of a mutation on the interaction” value with pom1_schpo pom1, Q09690 [3] is reported as “decreasing interaction”; in the experiment with pom1_schpo pom1, Q09690 [4], “disrupting interaction”.

The values above are taken from IntAct's records for PubMed 21703453.
